Source: article PMC8413462

Biological target: T1, Snu13 (Saccharomyces cerevisiae) (UniProt P39990)
T1 sequence: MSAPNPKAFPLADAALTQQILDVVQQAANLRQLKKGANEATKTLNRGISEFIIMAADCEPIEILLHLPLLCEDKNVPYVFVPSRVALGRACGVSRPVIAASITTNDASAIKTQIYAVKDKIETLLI
Test: EMSA
Details: EMSA: annealed in 10 mM Tris-HCl, 100 mM NaCl, 1 mM EDTA, pH 7.5; 4 C, 10% native PAGE; 10 pmol Cy5-RNA (~2 uM) or 0.5 nmol unlabeled RNA. RNP: 20 mM Na …

snR41-kl1
Kd: > 10 µM
